Source: US20260022353

Target: piggyBac transposase, 5 hyperactive mutations (Hyper) I30V,G165S,M226F,M282V,N538K (Trichoplusia ni?) (UniProt Q27026)
Test: cell_activity
Settings: ~50% enhanced integration in K562 (p260); ~50% enhanced excision in 293T (p263)

Chain of UniProt Q27026 (Q27026 entry or part of it I30V G165S M226F M282V N538K): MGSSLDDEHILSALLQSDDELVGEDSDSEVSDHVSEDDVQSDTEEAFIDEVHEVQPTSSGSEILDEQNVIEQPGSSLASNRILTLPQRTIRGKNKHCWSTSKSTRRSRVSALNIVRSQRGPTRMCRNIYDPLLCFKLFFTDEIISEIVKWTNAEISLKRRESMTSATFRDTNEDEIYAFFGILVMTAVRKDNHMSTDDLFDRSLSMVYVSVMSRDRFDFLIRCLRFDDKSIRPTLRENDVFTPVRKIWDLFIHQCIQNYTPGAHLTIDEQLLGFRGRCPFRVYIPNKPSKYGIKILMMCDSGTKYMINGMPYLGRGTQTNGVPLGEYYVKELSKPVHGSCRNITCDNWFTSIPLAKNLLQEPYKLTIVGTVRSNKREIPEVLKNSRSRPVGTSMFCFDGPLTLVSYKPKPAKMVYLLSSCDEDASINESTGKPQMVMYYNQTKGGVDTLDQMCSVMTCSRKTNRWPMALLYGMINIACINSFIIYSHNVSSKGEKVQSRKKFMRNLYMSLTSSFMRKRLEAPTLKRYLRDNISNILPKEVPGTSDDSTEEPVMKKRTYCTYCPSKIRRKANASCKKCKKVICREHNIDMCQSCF

piggyBac transposon with wild type LE and RE ITRs (dual reporter)
activity (fold vs 4-mutation SPB): 1.5
